The target of assay [1] is CD3 on T cells (UniProt P07766). Kind of assay: FACS on T cells, 0.01 ug antibody, PE goat anti-human secondary; panel labelled CONTROL.
In assay [2] the target is CD3 antigen (surface plasmon resonance). Kind of assay: SPR, Biacore, two state reaction model. In general terms: In SPR one partner is held on a chip, and binding of the other changes the refractive index at the surface.
Assay [3] concerns the target CD3 on T cells (UniProt P07766). In words: FACS on T cells, 0.1 ug antibody, PE goat anti-human secondary; panel labelled CONTROL.
Assay [4] has the same target. Kind of assay: FACS on T cells, 1 ug antibody, PE goat anti-human secondary; panel labelled CONTROL.
Assay [5] shares this target. Kind of assay: FACS on T cells, negative control antibody, amount not given, PE goat anti-human secondary; the same row stands in all three tables of the figure.
In assay [6] the target is human chondroitin sulfate proteoglycan 4 (CSPG4) on cells (human) (UniProt Q6UVK1). Kind of assay: FACS on M14 cells, negative control antibody, amount not given, PE goat anti-human secondary; the same row stands in all three tables of the figure.
human chondroitin sulfate proteoglycan 4 (CSPG4) on cells (human), sequence (Q6UVK1 30-2322 limits assumed): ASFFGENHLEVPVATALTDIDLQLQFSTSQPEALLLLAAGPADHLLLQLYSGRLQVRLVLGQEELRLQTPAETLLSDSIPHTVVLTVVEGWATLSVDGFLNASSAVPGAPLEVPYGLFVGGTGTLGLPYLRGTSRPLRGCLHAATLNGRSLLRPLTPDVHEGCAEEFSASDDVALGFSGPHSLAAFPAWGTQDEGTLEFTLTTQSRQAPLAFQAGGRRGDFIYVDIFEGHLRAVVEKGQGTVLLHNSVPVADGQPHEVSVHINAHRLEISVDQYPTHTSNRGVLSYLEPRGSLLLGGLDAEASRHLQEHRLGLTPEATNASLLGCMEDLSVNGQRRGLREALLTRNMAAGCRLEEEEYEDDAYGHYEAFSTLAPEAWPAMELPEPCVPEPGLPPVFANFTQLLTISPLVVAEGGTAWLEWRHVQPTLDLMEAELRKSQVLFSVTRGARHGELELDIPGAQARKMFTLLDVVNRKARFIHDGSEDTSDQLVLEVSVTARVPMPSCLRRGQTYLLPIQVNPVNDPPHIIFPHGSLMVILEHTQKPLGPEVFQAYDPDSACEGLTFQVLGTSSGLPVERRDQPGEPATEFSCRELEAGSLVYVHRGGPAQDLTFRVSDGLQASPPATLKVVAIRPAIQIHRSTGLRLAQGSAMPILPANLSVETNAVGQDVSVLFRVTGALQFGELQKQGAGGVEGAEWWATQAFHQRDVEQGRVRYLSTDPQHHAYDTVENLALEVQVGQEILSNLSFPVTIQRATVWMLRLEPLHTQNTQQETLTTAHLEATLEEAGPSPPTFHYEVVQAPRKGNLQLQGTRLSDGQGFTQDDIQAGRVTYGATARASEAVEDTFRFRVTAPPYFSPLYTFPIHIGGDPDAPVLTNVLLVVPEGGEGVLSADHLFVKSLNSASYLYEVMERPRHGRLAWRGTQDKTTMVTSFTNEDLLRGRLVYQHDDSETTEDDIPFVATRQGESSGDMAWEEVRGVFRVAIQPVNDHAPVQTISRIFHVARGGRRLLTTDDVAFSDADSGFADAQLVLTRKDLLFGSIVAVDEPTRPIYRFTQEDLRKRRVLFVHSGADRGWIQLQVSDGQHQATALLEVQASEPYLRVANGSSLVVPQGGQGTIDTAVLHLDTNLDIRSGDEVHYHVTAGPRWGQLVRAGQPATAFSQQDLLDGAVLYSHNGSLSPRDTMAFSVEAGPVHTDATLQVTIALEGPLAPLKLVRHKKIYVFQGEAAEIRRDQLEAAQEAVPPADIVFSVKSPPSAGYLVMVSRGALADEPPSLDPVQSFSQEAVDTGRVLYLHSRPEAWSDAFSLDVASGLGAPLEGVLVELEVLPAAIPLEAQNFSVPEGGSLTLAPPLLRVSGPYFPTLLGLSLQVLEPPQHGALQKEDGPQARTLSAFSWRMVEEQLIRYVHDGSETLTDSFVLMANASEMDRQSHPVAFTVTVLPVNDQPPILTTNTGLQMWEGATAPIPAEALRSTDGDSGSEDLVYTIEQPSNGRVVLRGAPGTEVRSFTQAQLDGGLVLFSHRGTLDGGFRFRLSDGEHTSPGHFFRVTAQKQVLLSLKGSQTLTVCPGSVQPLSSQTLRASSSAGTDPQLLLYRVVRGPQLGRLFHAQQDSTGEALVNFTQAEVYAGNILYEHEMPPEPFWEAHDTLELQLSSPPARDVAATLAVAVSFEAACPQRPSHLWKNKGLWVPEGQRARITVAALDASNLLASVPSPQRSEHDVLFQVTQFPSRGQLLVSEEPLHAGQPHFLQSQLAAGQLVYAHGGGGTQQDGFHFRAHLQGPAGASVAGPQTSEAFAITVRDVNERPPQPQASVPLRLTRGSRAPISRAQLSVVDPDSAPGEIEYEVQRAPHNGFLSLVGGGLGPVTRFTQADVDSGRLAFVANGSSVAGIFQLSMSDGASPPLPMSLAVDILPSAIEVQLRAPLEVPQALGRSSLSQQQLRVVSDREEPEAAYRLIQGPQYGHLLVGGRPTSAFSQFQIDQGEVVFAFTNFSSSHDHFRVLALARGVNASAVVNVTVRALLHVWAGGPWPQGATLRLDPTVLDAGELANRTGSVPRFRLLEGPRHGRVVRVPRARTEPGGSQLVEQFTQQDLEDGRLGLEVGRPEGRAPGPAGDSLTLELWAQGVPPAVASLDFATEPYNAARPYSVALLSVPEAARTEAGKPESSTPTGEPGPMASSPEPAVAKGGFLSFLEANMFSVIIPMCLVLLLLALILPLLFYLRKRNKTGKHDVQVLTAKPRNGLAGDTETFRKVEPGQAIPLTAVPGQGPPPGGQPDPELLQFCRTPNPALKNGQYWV

CD3 on T cells, sequence (P07766 23-207, chain 1 of 3): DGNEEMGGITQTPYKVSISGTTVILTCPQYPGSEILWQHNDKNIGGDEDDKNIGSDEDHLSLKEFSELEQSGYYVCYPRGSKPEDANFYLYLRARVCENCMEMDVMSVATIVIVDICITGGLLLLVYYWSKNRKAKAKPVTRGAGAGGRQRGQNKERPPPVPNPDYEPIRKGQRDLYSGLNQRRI
CD3 on T cells, sequence (P09693 23-182, chain 2 of 3, further chain): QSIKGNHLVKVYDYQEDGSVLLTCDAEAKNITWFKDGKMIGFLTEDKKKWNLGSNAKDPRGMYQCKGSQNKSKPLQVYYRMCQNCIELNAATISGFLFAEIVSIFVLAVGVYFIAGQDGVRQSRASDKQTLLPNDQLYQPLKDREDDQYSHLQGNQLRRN
CD3 on T cells, sequence (P04234 22-171, chain 3 of 3, further chain): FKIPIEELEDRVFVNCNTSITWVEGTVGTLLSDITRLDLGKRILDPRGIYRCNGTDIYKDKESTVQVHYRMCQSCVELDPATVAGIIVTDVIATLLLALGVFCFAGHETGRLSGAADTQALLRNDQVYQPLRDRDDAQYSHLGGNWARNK

For orientation: Kd means a measure of binding affinity in units of concentration. A low value points to higher affinity. By koff is commonly meant the first-order rate constant of dissociation. Low values mean a long-lived complex, high ones a short-lived complex. As usually defined, the kon is a measure of how fast the partners come together. On to humanized OKT3 IgG1-aGlyco (antibody), for which, in the assay with CD3 on T cells [1], the GEOMETRIC MEAN : FL2-H was 66.1. Also, in assay [2], the Kd is 61.7 nM, the koff is 0.105 s⁻¹ and the kon amounted to 1.71e+06 M⁻¹ s⁻¹. The substance further yielded a GEOMETRIC MEAN : FL2-H in the assay with CD3 on T cells [3] of 645. The GEOMETRIC MEAN : FL2-H in the assay with CD3 on T cells [4] was determined as 2010.

Take “control human IgG1 antibody (non-specific for CSPG4 or T cells)”: the figures for the GEOMETRIC MEAN : FL2-H (with CD3 on T cells [5]; in assay [6]) were 5.1 and 5.15, respectively.

The record behind these values is patent publication US20170342151A1.
